Laboratory results published in article PMC2916699 (Journal of molecular biology, 2009).
Where no end group is shown, it is not given here. The star is where a group is joined. Dansyl = CN(C)c1cccc2c(S(=O)(=O)*)cccc12

Molecular target: protein farnesyltransferase (FTase), wild type (UniProt Q04631 1-377; Q02293 1-437)
Assay: fluorescence polarisation

Row | Binder | Kd
1 | Dansyl-TKCAVQ [dansyl-TKCAVQ] | 13 ± 3 nM
2 | Dansyl-TKCVVT [dansyl-TKCVVT] | 7 ± 3 nM
3 | Dansyl-TKCTMS [dansyl-TKCTMS] | 6 ± 2 nM
4 | Dansyl-TKCSLM [dansyl-TKCSLM] | 8 ± 2 nM
5 | Dansyl-TKCSLC (cysteine pairing not given here) [dansyl-TKCSLC] | 5 ± 2 nM
6 | Dansyl-TKCTLQ [dansyl-TKCTLQ] | 7 ± 1 nM
7 | Dansyl-TKCLVM [dansyl-TKCLVM] | 6 ± 2 nM
8 | Dansyl-TKCNLQ [dansyl-TKCNLQ] | 8 ± 1 nM
9 | Dansyl-TKCNIM [dansyl-TKCNIM] | 5 ± 1 nM
10 | Dansyl-TKCSIS [dansyl-TKCSIS] | 3.4 ± 0.8 nM
11 | Dansyl-TKCYVM [dansyl-TKCYVM] | 12 ± 4 nM
12 | Dansyl-TKCSIM [dansyl-TKCSIM] | 6 ± 2 nM
13 | Dansyl-TKCRIS [dansyl-TKCRIS] | 12 ± 2 nM
14 | Dansyl-TKCGIM [dansyl-TKCGIM] | 3.6 ± 0.7 nM
15 | Dansyl-TKCSLG [dansyl-TKCSLG] | 3.4 ± 0.7 nM
16 | Dansyl-TKCTKF [dansyl-TKCTKF] | 6 ± 1 nM
17 | Dansyl-TKCLTS [dansyl-TKCLTS] | 5 ± 1 nM
18 | Dansyl-TKCIVA [dansyl-TKCIVA] | 5 ± 2 nM
19 | Dansyl-TKCITQ [dansyl-TKCITQ] | 3.6 ± 0.8 nM
